Target: T1, POLγA WT (UniProt P54099 26-1218)
T1 sequence: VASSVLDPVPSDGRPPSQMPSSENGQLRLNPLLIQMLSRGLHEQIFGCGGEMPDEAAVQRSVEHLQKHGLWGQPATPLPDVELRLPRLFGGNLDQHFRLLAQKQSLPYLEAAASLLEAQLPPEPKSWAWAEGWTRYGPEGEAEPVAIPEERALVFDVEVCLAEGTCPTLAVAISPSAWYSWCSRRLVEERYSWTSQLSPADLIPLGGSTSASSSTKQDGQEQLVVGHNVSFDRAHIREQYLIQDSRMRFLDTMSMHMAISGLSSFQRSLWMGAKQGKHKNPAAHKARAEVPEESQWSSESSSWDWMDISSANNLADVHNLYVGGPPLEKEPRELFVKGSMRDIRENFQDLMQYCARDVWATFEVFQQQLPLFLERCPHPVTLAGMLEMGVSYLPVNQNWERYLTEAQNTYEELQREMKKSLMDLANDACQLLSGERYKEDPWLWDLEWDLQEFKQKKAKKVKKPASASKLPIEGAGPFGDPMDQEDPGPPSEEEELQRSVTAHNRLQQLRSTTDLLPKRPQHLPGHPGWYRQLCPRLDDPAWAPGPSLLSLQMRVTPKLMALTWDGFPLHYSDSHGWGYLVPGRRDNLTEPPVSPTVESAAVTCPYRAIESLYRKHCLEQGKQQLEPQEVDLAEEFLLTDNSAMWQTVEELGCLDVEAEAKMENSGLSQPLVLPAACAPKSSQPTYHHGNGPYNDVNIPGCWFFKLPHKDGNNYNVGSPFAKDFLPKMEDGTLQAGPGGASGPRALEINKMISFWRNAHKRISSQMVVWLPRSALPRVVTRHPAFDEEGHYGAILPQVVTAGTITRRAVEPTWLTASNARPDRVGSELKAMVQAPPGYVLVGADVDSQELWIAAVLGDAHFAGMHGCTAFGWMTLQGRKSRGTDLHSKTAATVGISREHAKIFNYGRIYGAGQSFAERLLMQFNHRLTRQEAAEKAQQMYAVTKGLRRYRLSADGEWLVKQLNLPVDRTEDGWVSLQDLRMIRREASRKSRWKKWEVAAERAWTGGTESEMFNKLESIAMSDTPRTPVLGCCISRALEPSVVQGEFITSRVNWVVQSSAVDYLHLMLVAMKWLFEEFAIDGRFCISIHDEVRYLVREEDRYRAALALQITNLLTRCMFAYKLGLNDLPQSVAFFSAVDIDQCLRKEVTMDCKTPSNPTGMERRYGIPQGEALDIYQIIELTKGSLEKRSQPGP
Experiment: EMSA; POLγA alone; 10 mM MgCl2, ddGTP, dCTP, ATP; Kd in Suppl. Fig. 5A, value not in material; EMSA: 10 fmol DNA in 15 µl, 20 mM Tris-HCl pH 7.8, 1 mM DTT, 0.1 mg/ml BSA, 10 mM MgCl2, 10% glycerol, 2 mM ATP, 0.3 mM ddGTP, 3 mM dCTP, RT 10 min; 6% native PAGE 0.5x TBE
Conditions: protein: recombinant; label: 5'-32P on strand 2 (21-mer); 5' overhang 15 nt on strand 1; 21 bp duplex; primer-template

B1: 36-nt/21-nt primed template (mixed)
DNA 1: TTTTTTTTTTATCCGGGCTCCTCTAGACTCGACCGC
DNA 2: GCGGTCGAGTCTAGAGGAGCC
- binding result: binds

From paper doi:10.1101/2020.09.10.291369, “In vivo and in vitro mechanistic characterization of a clinically relevant PolγA mutation”
